This is an account of results in patent US20240270821A1, “GIP/GLP1/GCG TRI-RECEPTOR AGONISTS AND USES THEREOF” (priority 2023, published 2024).

Common to all, as to experiment: cell-based or functional assay
One assay concerns the target hGLP-1R (Homo sapiens, UniProt P43220).
The target of assay [1] is T1, human GIP receptor (human) (UniProt P48546).
T1 sequence (looked up): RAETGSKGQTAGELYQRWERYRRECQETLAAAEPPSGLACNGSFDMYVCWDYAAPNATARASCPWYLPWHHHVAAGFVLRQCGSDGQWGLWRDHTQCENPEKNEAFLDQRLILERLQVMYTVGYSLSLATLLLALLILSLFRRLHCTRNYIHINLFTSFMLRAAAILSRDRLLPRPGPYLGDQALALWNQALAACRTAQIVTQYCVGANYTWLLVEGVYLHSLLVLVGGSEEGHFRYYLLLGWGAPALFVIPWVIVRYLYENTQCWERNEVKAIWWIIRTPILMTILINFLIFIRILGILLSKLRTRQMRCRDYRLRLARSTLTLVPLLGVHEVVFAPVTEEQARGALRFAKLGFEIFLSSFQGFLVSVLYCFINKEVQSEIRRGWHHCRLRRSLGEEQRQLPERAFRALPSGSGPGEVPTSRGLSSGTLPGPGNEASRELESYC

The target in assay [2] is human glucagon receptor (human) (UniProt P47871).
Chain of human glucagon receptor (human) (P47871 26-477): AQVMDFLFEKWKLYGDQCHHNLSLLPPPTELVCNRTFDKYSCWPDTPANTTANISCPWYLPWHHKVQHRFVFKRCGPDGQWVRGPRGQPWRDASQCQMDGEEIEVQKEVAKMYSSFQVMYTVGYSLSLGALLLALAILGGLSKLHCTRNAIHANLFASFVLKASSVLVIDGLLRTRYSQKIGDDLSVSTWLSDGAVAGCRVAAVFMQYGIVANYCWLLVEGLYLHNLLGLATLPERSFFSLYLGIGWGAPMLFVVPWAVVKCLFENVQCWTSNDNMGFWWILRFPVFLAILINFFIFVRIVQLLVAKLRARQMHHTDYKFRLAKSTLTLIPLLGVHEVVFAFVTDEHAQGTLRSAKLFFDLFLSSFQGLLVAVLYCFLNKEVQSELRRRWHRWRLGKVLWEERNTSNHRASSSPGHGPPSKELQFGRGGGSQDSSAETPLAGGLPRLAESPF

Chain of hGLP-1R (P43220 24-463): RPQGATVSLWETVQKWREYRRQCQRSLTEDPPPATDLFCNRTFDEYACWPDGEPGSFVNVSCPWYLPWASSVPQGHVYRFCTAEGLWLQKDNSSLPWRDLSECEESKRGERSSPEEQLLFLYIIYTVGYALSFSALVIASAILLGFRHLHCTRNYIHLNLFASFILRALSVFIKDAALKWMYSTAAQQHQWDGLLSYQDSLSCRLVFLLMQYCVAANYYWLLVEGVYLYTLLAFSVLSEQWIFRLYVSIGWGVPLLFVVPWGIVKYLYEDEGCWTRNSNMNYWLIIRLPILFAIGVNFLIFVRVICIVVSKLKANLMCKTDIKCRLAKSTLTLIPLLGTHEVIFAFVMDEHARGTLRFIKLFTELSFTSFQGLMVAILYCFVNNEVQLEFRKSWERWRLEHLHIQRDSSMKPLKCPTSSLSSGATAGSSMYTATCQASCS

B1: Example 987 (peptide)
chain: YXQGTFTSDXSXXLDKKAQXAFIEXLIEXGPSSGEPPPSGS
modifications: Aib, 4Pal, Orn, αMeL, Me4Pal, acylated K, C-terminal amide; synthetic construct; SITE 2: note = 2-Aminoisobutyric Acid; SITE 10: note = 3-(4-Pyridyl)-L-alanine; SITE 12: note = L-ornithine; SITE 13: note = alpha-methyl-leucine; SITE 17: note = Lysine is chemically modified through conjugation of the epsilon-amino group of the Lysine side chain with (2-[2-(2-
Take B1: the Relative cAMP EC50 with hGLP-1R is 6.33 nM; in assay [1], 0.194 nM; in assay [2], 3.62 nM. The results for the cAMP Rel EC50, nM (1% HSA) (in the assay with hGLP-1R; in assay [1]; in assay [2]) were 515 nM, 11.7 nM and 267 nM, respectively.

B2: Example 991 (peptide)
chain: YXQGTFTSDXSXXLDXKAQXAFIEXLIEXGPSSGEPPPSGS
modifications: Aib, 4Pal, Orn, Me4Pal, lipidated Lys, C-terminal amide; synthetic construct; SITE 2: note = 2-Aminoisobutyric Acid; SITE 10: note = 3-(4-Pyridyl)-L-alanine; SITE 12: note = L-ornithine; SITE 13: note = alpha-methyl-leucine; SITE 16: note = L-ornithine; SITE 17: note = Lysine is chemically modified through conjugation of the epsilon-amino group of the Lys
As for B2, the Relative cAMP EC50 with hGLP-1R is 3.91 nM; in assay [1], 0.119 nM; in assay [2], 3.03 nM. For the same molecule, the cAMP Rel EC50, nM (1% HSA) amounted to 315 nM with hGLP-1R, 14.8 nM in assay [1] and 405 nM in assay [2].

B3: Example 1007 (peptide)
chain: YXQGTFTSDXSQXLDXKAQXAFIEYLIAGGPSSGEPPPSGS
modifications: not fully specified; synthetic construct; SITE 2: note = 2-Aminoisobutyric Acid; SITE 10: note = 3-(4-Pyridyl)-L-alanine; SITE 13: note = alpha-methyl-leucine; SITE 16: note = L-ornithine; SITE 17: note = Lysine is chemically modified through conjugation of the epsilon-amino group of the Lysine side chain with (gamma-Gl)
Take B3: the Relative cAMP EC50 with hGLP-1R is 0.668 nM; in assay [1], 0.116 nM; in assay [2], 5.34 nM. Also, the cAMP Rel EC50, nM (1% HSA) with hGLP-1R was 95.1 nM; in assay [1] it was 12 nM; in assay [2] it was 636 nM.

B4: Example 989 (peptide)
chain: YXQGTFTSDXSXXLDKKAQXAFIEXLIEXGPSSGEPPPSGS
modifications: Lys acylated (γ-Glu)2-C18 diacid; non-natural residues; C-terminal amide; synthetic construct; SITE 2: note = 2-Aminoisobutyric Acid; SITE 10: note = 3-(4-Pyridyl)-L-alanine; SITE 12: note = L-ornithine; SITE 13: note = alpha-methyl-leucine; SITE 17: note = Lysine is chemically modified through conjugation of the epsilon-amino group of the Lysine side chain with (gamma-Gl)
For B4, the Relative cAMP EC50 was 3.92 nM in the assay with hGLP-1R, 0.103 nM in assay [1] and 2.27 nM in assay [2]. Moreover, the cAMP Rel EC50, nM (1% HSA) stood at 402 nM with hGLP-1R, 8 nM in assay [1] and 247 nM in assay [2].

B5: Example 986 (peptide)
chain: YXQGTFTSDXSQXLDXKAQXAFIEYLIAGGPSSGEPPPSGTEEE
modifications: synthetic construct; SITE 2: note = 2-Aminoisobutyric Acid; SITE 10: note = 3-(4-Pyridyl)-L-alanine; SITE 13: note = alpha-methyl-leucine; SITE 16: note = L-ornithine; SITE 17: note = Lysine is chemically modified through conjugation of the epsilon-amino group of the Lysine side chain with (gamma-Gl)
Turning to B5, the Relative cAMP EC50 with hGLP-1R worked out at 3.06 nM; in assay [1], 0.299 nM; in assay [2] it was 4.94 nM. Besides, the cAMP Rel EC50, nM (1% HSA) with hGLP-1R was 380 nM; in assay [1], 31.3 nM; in assay [2] it was 702 nM.

B6: Example 998 (peptide)
chain: YXQGTFTSDXSQXLDXKAQXQFIEXLLAGGPSSGAPPPSGSEE
modifications: non-natural residues, acylated Lys, C-terminal amide; synthetic construct; SITE 2: note = 2-Aminoisobutyric Acid; SITE 10: note = 3-(4-Pyridyl)-L-alanine; SITE 13: note = alpha-methyl-leucine; SITE 16: note = L-ornithine; SITE 17: note = Lysine is chemically modified through conjugation of the epsilon-amino group of the Lysine side chain with (gamma-Gl)
On to B6, for which the results for the cAMP Rel EC50, nM (1% HSA) (in the assay with hGLP-1R; in assay [1]; in assay [2]) were 1470 nM, 6.78 nM and 794 nM, respectively.

B7: Example 999 (peptide)
chain: YXQGTFTSDXSQXLDXKAQXEFIEXLLAGGPSSGAPPPSGSEE
modifications: Aib, 4Pal, αMeL, Orn, Me4Pal, αMeY; γGlu2-C18 diacid Lys; amide; synthetic construct; SITE 2: note = 2-Aminoisobutyric Acid; SITE 10: note = 3-(4-Pyridyl)-L-alanine; SITE 13: note = alpha-methyl-leucine; SITE 16: note = L-ornithine; SITE 17: note = Lysine is chemically modified through conjugation of the epsilon-amino group of the Lysine side chain with (gamma-Gl)
As to B7, the cAMP Rel EC50, nM (1% HSA) with hGLP-1R worked out at 3020 nM; in assay [1], 10.4 nM; in assay [2] it was 2130 nM.

B8: Example 984 (peptide)
chain: YXQGTFTSDXSXXLDXKAQXAFIEYLIAGGPSSGEPPPSGTE
modifications: Aib, 4Pal, Orn, αMeL, Me4Pal; (γGlu)2-C18 diacid on Lys; amide; synthetic construct; SITE 2: note = 2-Aminoisobutyric Acid; SITE 10: note = 3-(4-Pyridyl)-L-alanine; SITE 12: note = L-ornithine; SITE 13: note = alpha-methyl-leucine; SITE 16: note = L-ornithine; SITE 17: note = Lysine is chemically modified through conjugation of the epsilon-amino group of the Lys
Turning to B8, the results for the Relative cAMP EC50 (with hGLP-1R; in assay [1]; in assay [2]) were 2.07 nM, 0.232 nM and 4.5 nM, respectively. In addition, the results for the cAMP Rel EC50, nM (1% HSA) (with hGLP-1R; in assay [1]; in assay [2]) were 160 nM, 23.5 nM and 409 nM, respectively.

B9: Example 1008 (peptide)
chain: YXQGTFTSDXSQXLDXKAQXAFIEYLIAGGPSSGEPPPSGSE
modifications: synthetic construct; SITE 2: note = 2-Aminoisobutyric Acid; SITE 10: note = 3-(4-Pyridyl)-L-alanine; SITE 13: note = alpha-methyl-leucine; SITE 16: note = L-ornithine; SITE 17: note = Lysine is chemically modified through conjugation of the epsilon-amino group of the Lysine side chain with (gamma-Gl)
As to B9, the Relative cAMP EC50 turned out to be 1.09 nM with hGLP-1R, 0.14 nM in assay [1] and 7.47 nM in assay [2]. Moreover, the cAMP Rel EC50, nM (1% HSA) with hGLP-1R is 126 nM; in assay [1] it was 15.2 nM; in assay [2], 1010 nM.

B10: Example 1009 (peptide)
chain: YXQGTFTSDXSXXLDKKAQXAFIEYLIAGGPSSGAPPPSGSE
modifications: synthetic construct; SITE 2: note = 2-Aminoisobutyric Acid; SITE 10: note = 3-(4-Pyridyl)-L-alanine; SITE 12: note = L-ornithine; SITE 13: note = alpha-methyl-leucine; SITE 17: note = Lysine is chemically modified through conjugation of the epsilon-amino group of the Lysine side chain with (gamma-Gl)
Take B10: the Relative cAMP EC50 came out at 2.1 nM with hGLP-1R, 0.13 nM in assay [1] and 4.21 nM in assay [2]. The cAMP Rel EC50, nM (1% HSA) with hGLP-1R is 174 nM; in assay [1], 9.72 nM; in assay [2], 268 nM.

B11: Example 990 (peptide)
chain: YXQGTFTSDXSXXLDKKAQXAFIEXLIEXGPSSGEPPPSGSE
modifications: Aib, 4Pal, Me4Pal, Orn, alpha-methyl-Leu, lipidated Lys, amide; synthetic construct; SITE 2: note = 2-Aminoisobutyric Acid; SITE 10: note = 3-(4-Pyridyl)-L-alanine; SITE 12: note = L-ornithine; SITE 13: note = alpha-methyl-leucine; SITE 17: note = Lysine is chemically modified through conjugation of the epsilon-amino group of the Lysine side chain with (gamma-Gl)
In the case of B11, the Relative cAMP EC50 with hGLP-1R amounted to 5.78 nM; in assay [1] it was 0.115 nM; in assay [2], 2.47 nM. Besides, the cAMP Rel EC50, nM (1% HSA) with hGLP-1R amounted to 557 nM; in assay [1], 9.87 nM; in assay [2] it was 276 nM.

B12: Example 988 (peptide)
chain: YXQGTFTSDXSXXLDKKAQXAFIEXLIEXGPSSGEPPPSGSE
modifications: non-natural residues; Lys acylated AEEA-(γGlu)2-C18 diacid; C-terminal amide; synthetic construct; SITE 2: note = 2-Aminoisobutyric Acid; SITE 10: note = 3-(4-Pyridyl)-L-alanine; SITE 12: note = L-ornithine; SITE 13: note = alpha-methyl-leucine; SITE 17: note = Lysine is chemically modified through conjugation of the epsilon-amino group of the Lysine side chain with (2-[2-(2-
B12: the Relative cAMP EC50 with hGLP-1R came out at 9.5 nM; in assay [1], 0.198 nM; in assay [2], 2.52 nM. Also, the cAMP Rel EC50, nM (1% HSA) stood at 743 nM with hGLP-1R, 11.8 nM in assay [1] and 320 nM in assay [2].

B13: Example 985 (peptide)
chain: YXQGTFTSDXSXXLDXKAQXAFIEYLIAGGPSSGEPPPSGTEE
modifications: non-natural residues, acylated Lys, C-terminal amide; synthetic construct; SITE 2: note = 2-Aminoisobutyric Acid; SITE 10: note = 3-(4-Pyridyl)-L-alanine; SITE 12: note = L-ornithine; SITE 13: note = alpha-methyl-leucine; SITE 16: note = L-ornithine; SITE 17: note = Lysine is chemically modified through conjugation of the epsilon-amino group of the Lys
B13: the figures for the Relative cAMP EC50 (with hGLP-1R; in assay [1]; in assay [2]) were 2.93 nM, 0.34 nM and 5.41 nM, respectively. In addition, the cAMP Rel EC50, nM (1% HSA) with hGLP-1R was determined as 217 nM; in assay [1] it was 24 nM; in assay [2], 374 nM.
